Assay results from patent US20240287175A1.

Biological target: mouse CD22 (mouse) (UniProt P35329)
Assay: cell-based or functional assay

Sequence of UniProt P35329 (P35329 22-868): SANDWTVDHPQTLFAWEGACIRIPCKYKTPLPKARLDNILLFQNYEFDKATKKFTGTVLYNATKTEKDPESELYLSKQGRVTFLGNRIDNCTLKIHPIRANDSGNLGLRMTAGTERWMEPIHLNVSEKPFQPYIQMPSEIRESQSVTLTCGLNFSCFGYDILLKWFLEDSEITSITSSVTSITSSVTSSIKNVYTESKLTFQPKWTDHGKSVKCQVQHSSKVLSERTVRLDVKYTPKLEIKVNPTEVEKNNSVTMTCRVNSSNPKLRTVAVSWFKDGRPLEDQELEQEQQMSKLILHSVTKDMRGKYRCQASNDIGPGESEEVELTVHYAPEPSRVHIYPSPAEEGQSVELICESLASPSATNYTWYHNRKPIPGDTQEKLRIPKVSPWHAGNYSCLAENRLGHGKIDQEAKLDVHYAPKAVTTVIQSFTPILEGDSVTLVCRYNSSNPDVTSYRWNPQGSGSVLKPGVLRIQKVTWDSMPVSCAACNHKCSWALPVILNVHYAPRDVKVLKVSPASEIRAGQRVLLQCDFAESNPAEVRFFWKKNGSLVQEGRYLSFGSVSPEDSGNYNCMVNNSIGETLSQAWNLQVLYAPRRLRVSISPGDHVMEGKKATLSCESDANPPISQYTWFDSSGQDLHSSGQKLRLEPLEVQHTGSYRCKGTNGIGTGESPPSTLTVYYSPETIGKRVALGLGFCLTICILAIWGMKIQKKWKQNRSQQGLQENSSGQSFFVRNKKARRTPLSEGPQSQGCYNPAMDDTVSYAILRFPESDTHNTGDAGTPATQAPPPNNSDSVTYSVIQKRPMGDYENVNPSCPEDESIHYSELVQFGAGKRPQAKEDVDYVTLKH

## mouse monoclonal anti-CD22 antibody (Cy34, BioXCell)
  receptor occupancy necessary to achieve IC50 in the pSHP1/SHP1 assay: < 50%
